Laboratory results as given in publication PMC9371925 (Nucleic Acids Research, 2022).
Values joined by “and” are separate entries in the source; they are usually repeats but may differ in a detail not shown here. Equal values may be shown once. Read-outs that look alike come from different tables or passages of the source.

Columns and labels:
[1] = molecular target: Streptomyces coelicolor zinc uptake regulator (ScZur) (Streptomyces coelicolor M145); assay: cryo-EM structure
ScZur [2] = molecular target: T1, ScZur (Streptomyces coelicolor M145, UniProt Q9L2H5 1-139); assay: EMSA
T1 sequence: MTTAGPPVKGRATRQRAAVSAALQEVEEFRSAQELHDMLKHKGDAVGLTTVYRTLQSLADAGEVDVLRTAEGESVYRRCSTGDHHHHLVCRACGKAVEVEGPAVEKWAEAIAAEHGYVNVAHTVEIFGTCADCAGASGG

ScZur [3] = molecular target: T1, ScZur; assay: EMSA; remark: listed apart in the source
cryo-EM structure = molecular target: the molecule itself; assay: cryo-EM structure

For “Streptomyces coelicolor zinc uptake regulator (ScZur) (natural protein)”, which stoichiometry N [1] is on record?
Its stoichiometry N is 6 and 4.

B1: zitB Zur-box 33 bp (-68 to -36) (dsDNA)
DNA 1: CAAGGCACATGACAACGGTGTTCAGTGCCGCGT
DNA 2: ACGCGGCACTGAACACCGTTGTCATGTGCCTTG
With B1 as the molecule, how does the Kd (ScZur [2]) read?
The Kd was 34 ± 0.7 nM.

B2: M2 33 bp (dsDNA)
DNA 1: CAAGGCACATCACAACTGTGTTGAGTGCCGCGT
DNA 2: ACGCGGCACTCAACACAGTTGTGATGTGCCTTG
Which Kd (ScZur [3]) does the source give for B2 here?
The Kd was 223 ± 30.5 nM.

B3: Streptomyces coelicolor RNA polymerase α subunit (natural protein, Streptomyces coelicolor M145)
chain: MLIAQRPSLTEEVVDEFRSRFVIEPLEPGFGYTLGNSLRRTLLSSIPGAAVTSIRIDGVLHEFTTVPGVKEDVTDLILNIKQLVVSSEHDEPVVMYLRKQGPGLVTAADIAPPAGVEVHNPDLVLATLNGKGKLEMELTVERGRGYVSAVQNKQVGQEIGRIPVDSIYSPVLKVTYKVEATRVEQRTDFDKLIVDVETKQAMRPRDAMASAGKTLVELFGLARELNIDAEGIDMGPSPTDAALAADLALPIEELELTVRSYNCLKREGIHSVGELVARSEADLLDIRNFGAKSIDEVKAKLAGMGLALKDSPPGFDPTAAADAFGADDDADAGFVETEQY
Does B3 bind (cryo-EM structure)?
Result: binds
